Experimental data from US20220332804A1 (CSL INNOVATION, published 2022).
Changes are numbered by the printed parent chain.

Experiments:
Assay in all cases: SPR; KD relative to WT C2;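 further: biacore SPR at 37 °C, anti-C2 mAbs captured on an anti-human IgG chip, alanine or serine C2 surface mutants tested, KD from 1:1 fit compared with wild-type C2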
[1] = molecular target: T1, human C2 F437A (human, UniProt P06681 21-752)
T1 sequence: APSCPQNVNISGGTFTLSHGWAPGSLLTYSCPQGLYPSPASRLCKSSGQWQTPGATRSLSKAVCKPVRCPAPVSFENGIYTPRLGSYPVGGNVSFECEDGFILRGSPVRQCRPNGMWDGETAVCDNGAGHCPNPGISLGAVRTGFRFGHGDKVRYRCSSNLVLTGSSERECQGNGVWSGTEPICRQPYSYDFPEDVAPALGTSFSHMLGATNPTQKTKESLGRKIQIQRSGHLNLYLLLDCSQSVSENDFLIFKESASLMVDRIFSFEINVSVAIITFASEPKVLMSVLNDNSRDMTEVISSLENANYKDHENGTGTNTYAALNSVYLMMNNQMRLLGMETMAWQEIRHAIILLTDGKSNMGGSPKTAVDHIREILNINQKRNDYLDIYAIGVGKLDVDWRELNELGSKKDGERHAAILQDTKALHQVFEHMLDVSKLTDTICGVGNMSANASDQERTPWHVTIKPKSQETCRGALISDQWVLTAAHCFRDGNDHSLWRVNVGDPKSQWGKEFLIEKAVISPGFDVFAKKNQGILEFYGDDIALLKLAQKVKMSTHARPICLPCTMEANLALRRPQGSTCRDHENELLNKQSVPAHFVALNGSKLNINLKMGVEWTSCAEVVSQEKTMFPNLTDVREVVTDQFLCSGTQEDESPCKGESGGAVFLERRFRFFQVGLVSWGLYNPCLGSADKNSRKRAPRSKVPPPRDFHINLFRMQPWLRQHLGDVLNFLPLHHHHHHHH

[2] = molecular target: T2, human C2 R434A (human, UniProt P06681 21-752)
T2 sequence: T1 sequence with R414A, A417F

[3] = molecular target: T3, human C2 S473A (human, UniProt P06681 21-752)
T3 sequence: T1 sequence with A417F, S453A

[4] = molecular target: T4, human C2 D431A (human, UniProt P06681 21-752)
T4 sequence: T1 sequence with D411A, A417F

Fold diff [1]: 12 fold
Fold diff [2]: 7 fold
Fold diff [3]: 2 fold
Fold diff [4]: 2 fold
B1: RF16-214 (antibody, V domains shown)
VH: EVQLLESGGGLVQPGGSLRLSCAASGFTFSWYQMMWVRQAPGKGLEWVSRIYPSGGGTAYADSVKGRFTISRDNSKNTLYLQMNSLRAEDTAVYYCARDAGYGDNWGQGTLVTVSS
VL: QSALTQPPSVSVSPGQTASITCSGDKLGEKYASWYQQKAGQSPVMVIYQDRKRPSGIPERFSGSNSGNTATLTISGTQAMDEADYYCQAWDTRAVVFGGGTKLTVLG
